*1 amine or outer side, *2 acyl side, *3 side chain or, on linkers, in order; H or OH if unused. Where no end group is shown, it is not given here. [ ]: non-standard residue; d: D form. Ccam = carbamidomethyl-cysteine, NC(=O)CSC[C@H](N[*:1])C(=O)[*:2]; βAla = NCCC(=O)O

Among the data in patent US20230391826A1, “COMPOSITIONS AND METHODS FOR TREATING DISEASES” (Sanford Burnham Prebys Medical Discovery Institute, priority 2020, published 2023) are IC50 values, retold here.

Assay [1] concerns the target EphA2 extracellular domain fused to the Fc portion of an antibody (EphA2-Fc). Kind of assay: ELISA, inhibition of ephrinA5-AP binding to immobilized EphA2-Fc; representative experiment, triplicates.
The target is the same in assay [2]. Briefly: ELISA, inhibition of ephrinA5-AP binding to immobilized EphA2-Fc. (An ELISA detects its analyte on a solid surface through an enzyme-linked reagent.)

Chain of EphA2 extracellular domain fused to the Fc portion of an antibody (EphA2-Fc) (P29317 whole entry, the tested form may be a part): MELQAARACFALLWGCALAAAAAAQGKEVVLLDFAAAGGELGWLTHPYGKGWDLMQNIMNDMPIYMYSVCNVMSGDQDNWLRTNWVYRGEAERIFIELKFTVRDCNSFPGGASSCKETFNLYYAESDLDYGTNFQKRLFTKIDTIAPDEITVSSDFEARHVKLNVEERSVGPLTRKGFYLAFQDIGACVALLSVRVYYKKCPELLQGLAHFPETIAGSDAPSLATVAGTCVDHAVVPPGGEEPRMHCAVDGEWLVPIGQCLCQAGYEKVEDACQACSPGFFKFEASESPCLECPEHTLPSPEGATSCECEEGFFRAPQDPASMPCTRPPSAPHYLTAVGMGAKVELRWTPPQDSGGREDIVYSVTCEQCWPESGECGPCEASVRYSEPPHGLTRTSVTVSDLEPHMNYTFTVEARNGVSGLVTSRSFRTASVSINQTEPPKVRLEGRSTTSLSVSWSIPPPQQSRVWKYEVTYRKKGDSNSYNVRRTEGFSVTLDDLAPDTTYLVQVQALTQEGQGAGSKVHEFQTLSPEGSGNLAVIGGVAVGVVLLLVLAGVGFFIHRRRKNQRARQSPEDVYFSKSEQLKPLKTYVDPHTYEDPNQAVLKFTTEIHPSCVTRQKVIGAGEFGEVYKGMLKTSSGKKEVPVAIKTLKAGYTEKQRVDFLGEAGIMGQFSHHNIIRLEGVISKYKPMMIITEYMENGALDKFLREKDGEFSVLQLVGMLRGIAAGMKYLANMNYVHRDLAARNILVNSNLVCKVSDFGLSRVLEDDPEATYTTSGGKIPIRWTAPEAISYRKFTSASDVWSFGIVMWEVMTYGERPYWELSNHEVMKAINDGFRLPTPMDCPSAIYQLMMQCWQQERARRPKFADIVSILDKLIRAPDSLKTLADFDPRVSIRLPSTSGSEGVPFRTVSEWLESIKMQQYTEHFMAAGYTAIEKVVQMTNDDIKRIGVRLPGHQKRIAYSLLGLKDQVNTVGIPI

B1: Click dimer (N-ter) (peptide)
peptide 1: KAWLAYPDSVPYRPK
peptide 2: XGAWLAYPDSVPYRPK
modifications: not fully specified; propargylglycine (Pra) at position 1, joined by a click linkage to KN3 of the other chain; C-terminal amide; azido-lysine (KN3) at position 1, joined by a click linkage to Pra of the other chain; C-terminal amide
For the molecule B1, the IC50 (as a rule, the midpoint of a concentration-inhibition curve) is 0.58 nM in assay [1] and 0.54 nM in assay [2].

B2: Lys-linked dimer (C-ter) (peptide)
peptide 1: [βAla]WLAYPDSVPYRPKK
peptide 2: [βAla]WLAYPDSVPYRPK
modifications: also: bond at chain A 15 to a chain's C-terminus
B2: the IC50 in assay [1] and in assay [2] was 0.77 nM throughout.

B3: linear dimer (head-to-tail) (peptide)
peptide: [βAla]WLAYPDSVPYRPKGGAWLAYPDSVPYRPK-NH2
modifications: N-terminus assumed
SMILES: CC(C)C[C@H](NC(=O)[C@H](Cc1c[nH]c2ccccc12)NC(=O)CCN)C(=O)N[C@@H](C)C(=O)N[C@@H](Cc1ccc(O)cc1)C(=O)N1CCC[C@H]1C(=O)N[C@@H](CC(=O)O)C(=O)N[C@@H](CO)C(=O)N[C@H](C(=O)N1CCC[C@H]1C(=O)N[C@@H](Cc1ccc(O)cc1)C(=O)N[C@@H](CCCNC(=N)N)C(=O)N1CCC[C@H]1C(=O)N[C@@H](CCCCN)C(=O)NCC(=O)NCC(=O)N[C@@H](C)C(=O)N[C@@H](Cc1c[nH]c2ccccc12)C(=O)N[C@@H](CC(C)C)C(=O)N[C@@H](C)C(=O)N[C@@H](Cc1ccc(O)cc1)C(=O)N1CCC[C@H]1C(=O)N[C@@H](CC(=O)O)C(=O)N[C@@H](CO)C(=O)N[C@H](C(=O)N1CCC[C@H]1C(=O)N[C@@H](Cc1ccc(O)cc1)C(=O)N[C@@H](CCCNC(=N)N)C(=O)N1CCC[C@H]1C(=O)N[C@@H](CCCCN)C(N)=O)C(C)C)C(C)C
For the molecule B3, the IC50 in assay [1] was determined as 0.38 nM; in assay [2], 0.4 nM.
Take [Ccam]GAWLAYPDSVPYR [CcamGA-WLA-YR]: the IC50 in assay [1] is 1300 nM; in assay [2] it was 1400 nM.
